The text below walks through data of the nanobody polyreactivity screen of Harvey et al. (2022).

A short description of this data set: yeast display, Sf9 membrane polyspecificity reagent, FACS + sequencing; frameworks hold sequencing errors. The procedure, abridged:
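Nanobodies from a synthetic yeast display library (Saccharomyces cerevisiae BJ5465), induced 36–48 hours with galactose, were stained 1 hour at 4 °C with 10% biotinylated, detergent-solubilized Sf9 membrane reagent, enriched on streptavidin microbeads, then FACS-sorted. Anti-HA (expression) and streptavidin (reagent binding) fluorescence set low and high (top ~1%) gates. Polyreactivity labels come from the gate of origin. Genes were colony-PCR amplified, MiSeq 2 × 250 sequenced and filtered by CDR length.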
For “QVHLVESGRGLFQAGGSLRLSCAASGFTFTTYVMGWYRQAPGKERELVAAITSGGSTNYADSVKGRFTISRDNAKNTVFLQMNSLKPEDTAVYFCNAVKDDGKGSYPNLHVFDYDYWGQGTQVTVSS”, the “polyreactivity (PSR sort gate)” value is “low polyreactivity”.

Turning to “QVQLVESCGGLVQAGGSLRLSCAPSGSTIPPNAMGWNRQAPRQERELVADSSDSSTSYADSVKGRFSISRDNAKNTVYLQMKSQKPEDTAVYYCAAADAGLRSKSYGQQYDYWGQGTQVTVSS”, the “polyreactivity (PSR sort gate)” value is given as “low polyreactivity”.

With “QVQLVESGGGLVQAGGSLRLSCAASGIIFADNDMGWYRQAPVKERELVATISSAGNTNYADSVKGRFTISRDNAKNTVYLQMNSLKPEDTAVYYCAVVYYIPLLPPWIYEYDYWGQGTQVTVSS”, the “polyreactivity (PSR sort gate)” value is given as “low polyreactivity”.

As for “QVQLVESGGGLVQAGGSLRLSCAASGFTFPGNTMGWYRQAPGKERELVAVISRSGGRSYYADSVKGRFTISRDNAKNTVYLQMNSLKPEDTAVYYCAADTSVRFDYWGQGTQVTVSS”, the “polyreactivity (PSR sort gate)” value is on record as “high polyreactivity”.

Take “QVQLVESGGRLVQAGGSLRLSCAASGSIFYTYAMGWYRQAPGKEMELVAAITYRVGSTYYADSVKGRFTISRDNAKNTVYLQMNSLKPEDTAVYYCNADKGGHVRHYDYWGQGTQVTVSS”: the “polyreactivity (PSR sort gate)” value was “low polyreactivity”.

In the case of “QVQLVESGGGLVQAGGSLRLICAASGSTFYYYTRVWYRQAPGKERELVAAISYGGSSTYYADSVKGRFTISRDNAKNSVYLQMNSLKPEDTAVYYCAAEYDWSYWLSYDYWGQGTLVTVSS”, the “polyreactivity (PSR sort gate)” value is reported as “low polyreactivity”.

Take “QVQLVESGGGLVQAGGSLRLSCAASGSIRYNAMGWYRQAPGKERELVAAISYRGGTTYYADSVKGRYTISRDNAKNTVYLQMNSLKPEDTAVYYCNAGVRAYGYSAKYYYWGQGTQVTVSS”: the “polyreactivity (PSR sort gate)” value is given as “high polyreactivity”.

As for “QVQLVESGGGLVQAGGRLRLSCAASGSIFRSNAMGWYRLAPGKEREFVAASTRSGGSTYYADTVKGRFTISRDNAKNTVYLQMNSLKPAATAVYYCAADWKSYAYYYWGQGTQVTVSS”, the “polyreactivity (PSR sort gate)” value is on record as “high polyreactivity”.

Turning to “QVQLVESGGGLVQAGGSLRLSWAASGITFDLYAMGWYRPAPGKEREFVATISWTGGTTYYADSVKGRFTISRDNAKNTVDLQMISLKPEVPAASYCNKGSDFFWYDYDYCGQGTQVTVSS”, the “polyreactivity (PSR sort gate)” value is given as “low polyreactivity”.

For the sequence “QVQLVESGGGLVQAGGSLRLSCAASGSNFWRNVMGWYRQAPGKERELVAAISSGGSTYYADSVKGRFTISRDNAKNTVYLQMNSLKPEDTEVYYCAAPRYDYWGQGTQVTVSS”, the “polyreactivity (PSR sort gate)” value is recorded as “high polyreactivity”.

Take “QVQLVESGGGLVQAGGSLRLSCAASGRISWGYAMGWYRQAPGKERELVAVINFNGGRTYYADSVKGRFTISRDNAKNTVYLQMNSLKPEDTAVYYCAADSGYEYDYWGQGTQVTVSS”: the “polyreactivity (PSR sort gate)” value was “low polyreactivity”.

Consider “QVQLVESGGGLVQAGGSLRLSCAASGSIFVWNAMGWYRQAPGKERELVAAITNIGGRTYYADSVKGRFTISRDNAKNTFYLQMNSLKPEDTAVYYCNVVVKGAWDYYPYDYWGQGTQVTVSS”, for which the “polyreactivity (PSR sort gate)” value is reported as “high polyreactivity”.

As to “QVQLVESGGGLVQAGGSLRLSCAASGFIFSENAMGWYRQAPGKERELVAAISDGGGSTYYADSVKGRFTISRDNAKNTVYLQMNSLKPEDTAVYYCNAVYHPKGPSGYGYWGQGTQVTVSS”, the “polyreactivity (PSR sort gate)” value is “low polyreactivity”.

Consider “QVQLVESGGGLVQAGGSLRLSCAASGFTFRRNAMRWYRQAPGKEWELVAAINFRDGSTYYADSLKGRFTISRDNAMIHVYLQMHSLKPEDSAVYYRAAVYYVRDRYDYWGQGTQETVSS”, for which the “polyreactivity (PSR sort gate)” value is recorded as “high polyreactivity”.

With “QVQLVESGGGLVQAGGSLRLSCAASGRILTTNAMGLYRQETGKERELVAAITRSGGRTYYADSVKGRFTISRDNAKNTVYLQMNSLKPEDTAVYYCNAVTTRLALYDYWGQGTQVTVSS”, the “polyreactivity (PSR sort gate)” value is on record as “high polyreactivity”.

“QVQLQESGDGLVQAGGSLRLSCAASGTIFTPHQMGWYRQAPGNEREFVATIDYGSSTNYADSLKGLFTISRDNAKNTMYPQMNSLKPEDTAVYYCANYYWGQGTQVTVSS”: the “polyreactivity (PSR sort gate)” value is given as “low polyreactivity”.

For “QVQLVESGGGLVQAGGSLRLSCAASGYTFRYYAMGWYRQAPGKERELVAAISRSGGSTYYADSVKGRFTISRDNAKNTVSLQMNSLKPEDTAVYYCAVALARPYEDYDYWGQGTQVTVSS”, the “polyreactivity (PSR sort gate)” value is “high polyreactivity”.

Consider “QVQLVESGGGLVQAGVSLRLSCAASGSIFTQYAMGWSRQAPGKERELVAAISWSGARTYYADSVKGRFTISRDNAKNTVYIQMNSLKPEDTAVYYWAADIIRPVTVDYWGQGTQVTVSS”, for which the “polyreactivity (PSR sort gate)” value was “high polyreactivity”.

For the sequence “QVQLVESGGGLVQAGGSLRLSCAASGRIFRVYAMGWSRQAPGKERELVASITRTGGGTYYADSVKGRFTNSRDNAKNTVYLQMNRLKPEDPAVYYCAADAFIPGYQLHYHWGQGTQVTVSS”, the “polyreactivity (PSR sort gate)” value is recorded as “low polyreactivity”.

Turning to “QVQLVESGGGLVQAGGSLRLSCAASGSTFYAYAMGWYRQAPGKGGELVAAIDSGGSTYYADSVKGRFTISRDNAKNTVYLQMNSLKPEDTAVYYCAVRHRYTRAYWGRDYWGQGTQVTVSS”, the “polyreactivity (PSR sort gate)” value is reported as “low polyreactivity”.

On to “QVQLVESGGGLVQTGGSLRLSCASSGRIFFDNAMGWYSQAPGKERELVAGIDSGGSTYYADSVKGRFSISRDNAKNTVYLQMNRLKPEDTAVYYCNADYPPSTQSPLLQSYDYWGHGTQVTVSS”, for which the “polyreactivity (PSR sort gate)” value is given as “low polyreactivity”.

In the case of “QVQLVESGGGLVQAGGSLRLSCAASGGIFYRYVMRWYRQAPGKERELVAAITFSGGSTYYSDSVKGRFTISRDNAKNTVYLQMNSLKPEDTAVYYCAADTYYNPYWLDYWGQGTQVTVSS”, the “polyreactivity (PSR sort gate)” value is reported as “low polyreactivity”.

As to “QVQLVESGGGLVQAGGSLRLSCAASGRIFASYAMGWYRQAPGKERELVASISKSVGRTYYSDSVKGRFTISRDNAKNTVYLQMNSLKPEDTAVYDCAAISYFPLRTRYERWFYYWGQGTQVTVSS”, the “polyreactivity (PSR sort gate)” value is given as “high polyreactivity”.

As to “QVQLVESGGGLVQAGGSLRLSCAASGSTFGWYAMGGYRQAPGKERELVAAISASGGATYYADSVKGRFTISRDNAKNTVYLQMNSLKPEDTAVYYCAAVRYPNWYDYWGQGTQVTVSS”, the “polyreactivity (PSR sort gate)” value is “high polyreactivity”.

Turning to “QVQLVESGGGLVQAGGSLRLSCAATGRIFNPNAMGWYRQAPGKERELVAAITSGDSTNYADSVKGRFTISRDNAKNTVYLQMNSLKPEDTAVYYCAAGPSYRPPWLRQGGYDYWGQGTQVTVSS”, the “polyreactivity (PSR sort gate)” value was “low polyreactivity”.

“QVQLVESGGGLVQAGGSLRLSCAASGITFWKYAMGWYRQAPGKERELVAAISKSGGSTYYADSVKGRFTISRDNAKNTVYLQMNSLKPEDTAVYYCAAYPQFWYWDYNYWGQGTQVTVSS”: the “polyreactivity (PSR sort gate)” value is listed as “high polyreactivity”.

As for “QVQLVESGGGLVQAGGSLRLSCAASGYIYYYYAMGWYRQAPVKERELVAAITFSGGSTYYADSVKGRFTISRDNAKNTVYLQMNSLKPEDTAVYYCAKVELRDSALLGSDEYDYLGQGTQVTVSS”, the “polyreactivity (PSR sort gate)” value was “low polyreactivity”.

Regarding “QVQLEESGGGLVQAGGSHRLSCAASGSIIYPYTMGWYRQAPRKERELVAAISGGGRTYYADSVKGRFTISRDNAKNTVYLQMNSLIPEDTAVYYCAARRGYPSGYEYWGQGTQVSVSS”, the “polyreactivity (PSR sort gate)” value was “high polyreactivity”.

On to “QVQLVESGGRLVQAGGSLRLSCAASGRIFGPYVMGWYRQAPGKERELFAAISTSGTYTYYADSVNGRFTISPDNAKNTVYLQMNSLKPEDTAVYYCAKRSGARHRLMDYWGQGTQVTVSS”, for which the “polyreactivity (PSR sort gate)” value is given as “low polyreactivity”.

Consider “QDQLVESGGGLDQAGGRLRLSCAASGSIFGVYAMGWYRQAPGKERELVASITWSSGSTNYADSVKGRFTISRDNAKNTVYLQMNSLKPEDTAVYYCNRVYARSQRVVTKFHYDYWGQGTQVTVSS”, for which the “polyreactivity (PSR sort gate)” value is “low polyreactivity”.

Regarding “QVQLVESGGGVVQAGGSLRLSCAASGFIFSYNVMVWYRQAPGKERELVAAISSSGGSTYYADSVKGRFTISRDNAKNTAYLQMNSLKPEDTAVYYCATRVSRSFRAYDYWGQGTQVTVSS”, the “polyreactivity (PSR sort gate)” value is “high polyreactivity”.

Consider “QVQLVESGGGLVQAGGSLRLSCAASGFTFSGYAMGWYRQAPGKERELVAASTRRTGTTYYADSVKGRFTISRDNAKNTVYLQMNSLKPEDTAVYYCNKGYPSPPAGEYGYWGQGTQVTVSS”, for which the “polyreactivity (PSR sort gate)” value is “high polyreactivity”.

With “QVQLVESGGGLVQAGGSLRLSCAASGITFDRYAMAWYRHAPGKERELVAAITSSGGRTYYADSVKGRFTISRDNAKNTVYLQMNSLKPEDTAVYYCNTPWQNRADSHRDYWGQGTQVTVSS”, the “polyreactivity (PSR sort gate)” value is “high polyreactivity”.

With “QVQLVESGGGLVPAGGSLRLSCAASGSTFHYYTMGWYRQAPGKERELVAAISWRGTSTYYADSVKGRFTISRDNAKNTVYLQMNSLKAEDTGVYYCAVRSSPGAGYYYWGQGTQVTVSS”, the “polyreactivity (PSR sort gate)” value was “high polyreactivity”.

“QVQLVDSGGGLVQAGGSLRLSCAASGRIFRLYAMGWYRPAPGKERELVATITRSGVSTYYADSVKGRFTISRDNAKNTVYLQMNSLKPEDTAVYYCAVDRWGRYYATQYTFDYWGQGTQVTVSS”: the “polyreactivity (PSR sort gate)” value is on record as “high polyreactivity”.

Turning to “QVQLVESGGGLVQAGGSLRLSFAASGSNFGPNGMGWYRQAPGKERELVARIDRIGGGTYYADSVKGRFTISRDNAKNNVYLKMNSLKPEETAVYYCAKSGSAYWHSGWSVGFDYWGQGTQVTLSS”, the “polyreactivity (PSR sort gate)” value is “low polyreactivity”.

Regarding “QVQLVESGGGLVQAGGSLRLSCAASGSIFYINAMVWYRPAPGTERELLAAITSGGTYYADSVKGRFTISRDNAKNTVYLQMNSLKPEDTAVDYCAADREGTPLFDYWGQGTQVTVSS”, the “polyreactivity (PSR sort gate)” value is “low polyreactivity”.

In the case of “QVQLVESGGGLVQAGGSLRLSCAASGFIFGSIVMGWYRQAPGKERELVAAISKRGGTTYYADSVKGRFTISRDNAKNPVYLQMNSLKPEDTAVYYCAVEWCFRRNGRMDYWGQGTQVTVSS”, the “polyreactivity (PSR sort gate)” value was “high polyreactivity”.

In the case of “QVQLVESGGGLVQAGGSLRLSCAASGSTFYIYAMGWYRQAPGKERELVATISRGGSTNYADSVKGRFTISRDNAKNTVYLQMNSLKPEDTAVYYCAAEAAFTSYWWSVTYPYDYWGQGTQVTVSS”, the “polyreactivity (PSR sort gate)” value is given as “high polyreactivity”.

As to “QVQLVESGGGLGQAGGSLRLSCAASGSIFYYYAMGWYRQAPGKERELVAGINSGDSTYYADSVKGRFTISRDNAKNTVYLQMNRLKPEDTAVYYCAASADGWYEYWGQGTQVTVSS”, the “polyreactivity (PSR sort gate)” value is “low polyreactivity”.

Turning to “QVQLVESGGGLVQAGGSLRLSCAASGIIFTYNAMGWSRQAPGKERELVAAINSSGGSTNYADSVKGRFTISRDNAKNTVYLQMNSLKPEDTAVYYCAARDATYYGVWRYYGIDDYWGQGTQVTVSS”, the “polyreactivity (PSR sort gate)” value is “low polyreactivity”.
